Assay results taken from US20260250410A1 (SICHUAN HUIYU PHARMACEUTICAL, published 2026).
Positions count from the first letter of the chain named.

T1: HuCDCP1-C (human, UniProt Q9H5V8 30-667)
T1 construct: range 30-667; expressed in HEK-293T, purified by Fc/his tag; also called human CDCP1-C; full-length extracellular domain of human CDCP1; not shown: Fc or his tag
T1 sequence (looked up): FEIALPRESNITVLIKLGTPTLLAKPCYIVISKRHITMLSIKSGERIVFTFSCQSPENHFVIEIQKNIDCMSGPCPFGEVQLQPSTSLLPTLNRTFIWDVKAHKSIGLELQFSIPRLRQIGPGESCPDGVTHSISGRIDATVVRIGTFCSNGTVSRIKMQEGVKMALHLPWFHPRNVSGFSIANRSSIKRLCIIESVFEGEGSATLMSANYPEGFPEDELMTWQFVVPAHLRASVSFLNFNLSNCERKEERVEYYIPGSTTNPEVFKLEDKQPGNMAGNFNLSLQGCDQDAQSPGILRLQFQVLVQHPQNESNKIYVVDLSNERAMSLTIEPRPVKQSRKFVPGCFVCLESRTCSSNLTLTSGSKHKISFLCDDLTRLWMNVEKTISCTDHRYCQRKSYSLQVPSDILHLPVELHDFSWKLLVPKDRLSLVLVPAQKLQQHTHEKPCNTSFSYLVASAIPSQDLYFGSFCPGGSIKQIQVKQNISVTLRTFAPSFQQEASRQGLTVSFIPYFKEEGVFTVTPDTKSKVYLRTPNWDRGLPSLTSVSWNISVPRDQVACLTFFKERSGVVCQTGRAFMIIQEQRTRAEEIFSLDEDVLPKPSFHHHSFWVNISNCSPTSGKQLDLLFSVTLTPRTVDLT

T2: human CDCP1 on tumor cells (human, UniProt Q9H5V8 30-836)
T2 sequence (looked up): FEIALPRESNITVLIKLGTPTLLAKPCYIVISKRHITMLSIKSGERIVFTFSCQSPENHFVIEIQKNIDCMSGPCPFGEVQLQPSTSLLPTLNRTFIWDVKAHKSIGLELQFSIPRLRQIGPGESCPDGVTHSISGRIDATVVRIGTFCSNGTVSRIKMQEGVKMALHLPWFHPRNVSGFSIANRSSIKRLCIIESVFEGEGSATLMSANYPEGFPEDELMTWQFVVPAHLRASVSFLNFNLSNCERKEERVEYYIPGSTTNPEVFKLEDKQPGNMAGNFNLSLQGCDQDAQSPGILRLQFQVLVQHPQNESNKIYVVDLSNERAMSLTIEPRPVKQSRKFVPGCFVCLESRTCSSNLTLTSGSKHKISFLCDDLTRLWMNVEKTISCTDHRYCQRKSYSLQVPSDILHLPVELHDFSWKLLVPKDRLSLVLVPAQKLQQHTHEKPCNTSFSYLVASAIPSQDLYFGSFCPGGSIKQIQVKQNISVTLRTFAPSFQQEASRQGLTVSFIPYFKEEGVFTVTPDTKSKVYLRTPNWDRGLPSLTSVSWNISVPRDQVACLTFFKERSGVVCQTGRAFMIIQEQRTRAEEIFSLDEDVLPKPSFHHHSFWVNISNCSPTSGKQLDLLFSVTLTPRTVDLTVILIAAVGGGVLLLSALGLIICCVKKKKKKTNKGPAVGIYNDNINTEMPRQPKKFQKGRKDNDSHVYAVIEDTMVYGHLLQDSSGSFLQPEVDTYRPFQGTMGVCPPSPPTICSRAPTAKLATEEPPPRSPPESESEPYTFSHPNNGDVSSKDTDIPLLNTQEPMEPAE

T3: huCDCP1-his (human, UniProt Q9H5V8 30-667, limits assumed)
T3 construct: also called human CDCP1 antigen; not shown: his tag
T3 sequence (looked up): T1 sequence (looked up)

B1: SB7 (antibody, V domains shown)
VH: QVQLQQSGPELVSPGESVKISCKGSGYTFTDYAVHWVKQSHSKSLEWIGVKSVYYGITKYSQNFKDKATMTVDKSSSTAYMELARLTSEDSAIYYCARDSYGSSRGYFDYWGQGTTLTVSS
VL: DIKMTQSPSSIYVSPGERVTITCKASQDINSFLSWFQQKPGKSPKTLIYRANRLVDGVPSRFSGSGSGQDYSLTISSLEYEDMGIYYCLQYDEFPRTFGGGTKLEIK
notes: single B cell antibody, expressed in CHO
B2: SB2 (antibody, V domains shown)
VH: DVKLVESGGGLVKPGGSLKLSCAASGFTFSSYTMSWVRQTPEKRLEWVATISSGGIYTYYPDSVKGRFTISRDNAKDTLYLQMNSLRSEDTAVYYCSSPHSYAISYGYFDYWGQGTTLTVSS
VL: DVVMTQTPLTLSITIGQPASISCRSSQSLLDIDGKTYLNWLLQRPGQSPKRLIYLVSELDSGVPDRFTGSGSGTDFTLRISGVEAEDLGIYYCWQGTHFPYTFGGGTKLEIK
notes: as for B1
B3: SB3 (antibody, V domains shown)
VH: B2 VH with K13E, T28P, N84S
VL: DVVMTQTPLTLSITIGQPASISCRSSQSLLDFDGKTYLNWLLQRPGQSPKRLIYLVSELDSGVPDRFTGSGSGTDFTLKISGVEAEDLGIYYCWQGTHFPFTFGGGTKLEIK
notes: as for B1
B4: SB6 (antibody, V domains shown)
VH: QGQMQQSGAELVKPGASVKLSCKTSGFTFNSSYITWLKQKPGQSLEWIAWIFAGTGGTYYNEKFTDKAQLTVDTTSSTAYMQFSSLTTEDSAIYYCARHGLGYDYWGQGTTLTVSS
VL: SIVMTQTPKFLLVSAGDRVTITCKASQSVNTDVAWYQQKSGQSPKLLIYSASNRYTGVPDRFTGSGYGTDFTFTISTVQAEDLAVYFCQQDHSSPPWTFGGGTKLEIK
notes: as for B1
B5: SB1 (antibody, V domains shown)
VH: QVQLQQSGPDLVRPGESVKISCKGSGYTFTDHAIHWVRQSHAKSLEWIGVISFSYDNTKYNQNFKGKATMTVDKSSNTAYMELARLTSEDSAIYYCARDCYGSNRGYFDYWGQGTTLTVSS
VL: DIRMTQSPSSMYASLGERVTITCKASQDINRFLSWFLQRPGKAPKTLIYRANNLVEGVPSRFSGSGSGQDYSLIISNLEYEDMGIYYCLQYDEFPRTFGGGTKLEIK
notes: as for B1
B6: SB4 (antibody, V domains shown)
VH: QVQLQQSGAELVRPGTSVKISCKASGYTFTNYWLGWVKQRPGHGLEWIGDNYPGDNYRNFNEKFKGKATLTTDASSSTAYLQLSSLISEDSAVYFCTRSGGSRYYTMDYWGQGTSVTVSS
VL: DIVMTQAAFSNPVTLGTSASISCRSSRSLLHNNGITYLYWYLQKPGQSPQLLIYQMSNLASGVPDRFHSSGSGTDFTLSISRVEAEDVGVYYCAQNLDLPYTFGGGTKLEIK
notes: as for B1
B7: 8E5-MMAE (antibody, V domains shown)
VH: EVQLKESGPELKKPGETVKISCKASGYTLTDFSMHWLKQAPGKGLKWMGWINTETGAPTYADDFKGRFALSLDTSANTAYLQINNLKNEDTATYFCSRGRDYDPHFDYWGQGTTVTVSS
VL: EIVLTQSPATLSVTPGDRVSLSCRASQSISDFLHWYQQRSHESPRLLIKYASQSISGIPSRFGGSGSGSDFTLNINTVEPEDVGMYYCQSAHSFPYTFGGGTKLEIK
modifications: vc-MMAE coupled after reduction, sites not stated; DAR 3.65
B8: G10F6-MMAE (antibody, V domains shown)
VH: EVKLVESGPGILQPSQTLSLTCSFSGFSLSTSGMGVSWVRQPSGKGLEWLAHIYWDDDKRYNPSLKGRLTISKDTPRNQVFLEITSVDTTDTATYYCARVPGNWDEDAMDYWGQGTTVTVSS
VL: DIQMTQSPLSLPVSLGDQASISCRSSQNIVHTNGNTYLEWYLQKVGQSPKLLIYKVSNRFSGVPDRFSGSGSGTDFTLKISRVEAEDLGVYYCFQGSHVPYTFGGGTKLEIK
modifications: vc-MMAE coupled after reduction, sites not stated; DAR 3.6
B9: 5B8-MMAE (antibody, V domains shown)
VH: EVQLKESGGGLVQPGGSLRISCATSGLTFTHYHMSWVRQPPGKAPEWLAIIRNKAYGYTTDYSASVRGRFTISRDDSQSILYLQMNTLRAEDSATYYCVREGGYGYDGTFAYWGQGTTVTVSS
VL: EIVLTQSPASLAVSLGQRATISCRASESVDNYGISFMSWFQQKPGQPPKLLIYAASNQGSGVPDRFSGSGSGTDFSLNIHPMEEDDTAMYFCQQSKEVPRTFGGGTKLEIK
modifications: vc-MMAE coupled after reduction, sites not stated; DAR 3.85
B10: 8C9-MMAE (antibody, V domains shown)
VH: B9 VH with A90P
VL: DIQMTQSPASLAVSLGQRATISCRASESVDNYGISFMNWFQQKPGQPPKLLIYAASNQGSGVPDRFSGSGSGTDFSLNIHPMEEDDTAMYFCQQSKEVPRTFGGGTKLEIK
modifications: vc-MMAE coupled after reduction, sites not stated; DAR 3.44
B11: 3C11-MMAE (antibody, V domains shown)
VH: EVQLQQSGTVLARPGASVKMSCKASGYNFISYWLHWIKQRPGQGLEWIGGIYPGNTDTTYNQKFKGKAKVTAVTSATTAYMELSSLTNEDSAVYYCIRYDYDRGMDYWGQGTTVTVSS
VL: DIQMTQSPSSFSVSLGDRVTITCRASEDIYYRLAWYQQKPGNAPRLLISGATALETGVPSRFSGSGSGKDYTLSITSLQTEDVATYYCQHYWNIPWTFGGGTKLEIK
modifications: vc-MMAE coupled after reduction, sites not stated; DAR 3.48
B12: 3B12H5-MMAE (antibody, V domains shown)
VH: EVQLQQSGTVLARPGASVKMSCKASGYSFTIYWVHWVKQRPGQGLEWIGAVYPGNDDTSYNQNFKGKAKLTAVTSATTAYMELSSLTIDDSAVYYCTRHTYDEVFDYWGQGTTVTVSS
VL: B11 VL with Q3V, F11L, R24K, A51G, A53N, T56A, V58I, T85I, I94T
modifications: vc-MMAE coupled after reduction, sites not stated; DAR 3.2
B13: 6A7-MMAE (antibody, V domains shown)
VH: EVQLKESGAELVRPGASVKVSCKASGYSFTSYWMNWVKQRPGQGLEWIGMIHPSDSETKLNQKFRDRASLTVDKSSSTAYMQLSSPTSEDSAVYYCTINYESFYYAMDYWGQGTTVTVSS
VL: DIVMTQSPASLAVSLGQRATISCRASKSVSTSGYSYMHWYQQKPGQPPKLLLYLASNLESGVPARFSGSGSGADFTLNIHPVEEEDAATYYCLHSRELPYTFGGGTKLEIK
modifications: vc-MMAE coupled after reduction, sites not stated; DAR 3.6
B14: 10D2-MMAE (antibody, V domains shown)
VH: EVQLQQSGPELKKPGETVKISCKASGYTFTDYSMHWVKQAPGKGLKWMGWINTETGQPTYADDFKGRFAFSLETSASSAYLQINNLKNEDTATYFCTRTFYYDYVGDYWGQGTTVTVSS
VL: DIVMTQSHKFMSTSVGDRVSITCKASQDVSTAVAWYRQKPGQSPKLLIYWASTRHTGVPDRLTGSGSGTDFALTINSVQAEDLALYYCQQHSSTPYTFGGGTKLEIK
modifications: vc-MMAE coupled after reduction, sites not stated; DAR 3.5

target: T1, HuCDCP1-C; test: ELISA, coated antigen
Description: (§1) The candidate antibodies obtained from Example 6 were subjected to gene cloning, constructed into an expression vector for a small amount of expression in CHO cells, and purified with an Fc affinity column (AT Protein A Diamond Plus. No. AA402312). Antibody purity was analyzed by HPLC and determined by Nanodrop. High-throughput affinity assay was carried out for a small amount of antibodies by Caterra. […] At the same time, 2 μg/ml antigen human CDCP1-C and 2 μg/ml human CDCP1-B were used for coating, and the antigen-antibody binding capacity was tested by ELISA for verification.

Binder	EC50 [nM]
B1	0.034
B2	0.045
B3	0.049
B4	0.027
B5	0.092
B6	0.071

target: T2, human CDCP1 on tumor cells; test: cell-based or functional assay

Binder	IC50 (nM), killing of HCT116 cells (120 h), CellTiter-Glo [nM]	IC50 (nM), killing of MDA-MB-231 cells (120 h), CellTiter-Glo [nM]	IC50 (nM), killing of PC3 cells (96 h), CellTiter-Glo [nM]
B7	10.6	> 40	0.0205
B8	1.29	> 40	0.0106
B9	11.7	> 200	0.014
B10	13	> 40	0.0184
B11	2.33	> 40	0.0119
B12	6.87	> 40	0.0225
B13	5.84	> 40	0.0527
B14	11.4	> 200	0.0164

target: T3, huCDCP1-his; test: SPR (Caterra), antigen immobilized
Description: as §1

Binder	Kd [nM]
B1	1.74
B2	1.44
B3	0.201
B4	0.722
B5	1.61
B6	7.66
